Assay: yeast display, Sf9 membrane polyspecificity reagent, FACS + sequencing; frameworks hold sequencing errors
Method in brief: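 A synthetic nanobody library was expressed on Saccharomyces cerevisiae BJ5465 by galactose induction for 36–48 hours. The library was stained for 1 hour at 4 °C with 10% biotinylated, detergent-solubilized Sf9 membrane reagent and enriched with streptavidin microbeads before FACS. Low and high (top ~1%) gates were set on anti-HA fluorescence for expression and streptavidin fluorescence for reagent binding, and each polyreactivity label reflects the gate of origin.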

Sequence	polyreactivity (PSR sort gate)
QVQLVESGGGLVQAGGSLRLSCAASGFTFIDYAMGWSRQAPGKERELVAAITRDGGSTYYADSVKGRFTISRDNANNTVYLQMNRLKPEDTAVYYCATVRRVQHWVWYWLWRYDYWGQGTQVTVSS	high polyreactivity
QVQLVESGGGLVQAGGSLRLSCAASGSIFSTYAMGWYRQAPGKERELVAAISRRAGTTYYADSVKGRFTISRDNAKNTVYLQMNSLKPEDTAVYYCAALTESSSYGYWGQGTQVTVSS	low polyreactivity
QVQLVESGGGLVQAGGSLRLSCAASGFIFGDYAMGWYRQAPGKERELVAAINYSGGSTYYADSVKGRFTISRDNAKNTVYLQMNSLKPEDTAVYYCAALIYGLVGWGQGTQVTVSS	low polyreactivity
QVQLVESGGGLVQAGGSLRLSCAASGRTFRYNTMGWYRQAPGKERELVAAITRSGGTTYYADSVKGRFTISRDNAKNTVYLQMNSLKPEDTSVYYCAAEGQAVRKSARDVFFEEFDYWGHGTQVTVSS	low polyreactivity
QVQLVESGGGLVQAGGSLRLSCAASGSTFAVNAMGWYRQAPGKEREFVASIRGSGGRTSYADSVKGRFTISRDNAKNTVYLQMNCLKPEDTAVYYCAARYVGGTWRSGRYPRSDYWGQGTQVTVSS	high polyreactivity
QVQLVESGGGLVQAGGSLRLSCAASGSIFKYYAMGWYRQAPGKERELVASITSGGSTNYADSVKGRFTISRDNAKNTVYLQMNSLKPEDTAVYYCAADGVRVPRREYDYWGQGTQVTVSS	low polyreactivity
QVQLVESGGGLVQAGGSLRLICAASGITLWTYAMGWYRQAPGKERELVAAIRRGGSTYYADSVKGRFTISRDNAKYTVFLQMNSLKPEDTAVYYCNTVSFYPYYYWGQGTQVTVSS	high polyreactivity
QVQLVESGGGLVQAGGSLRLSCAASGRTFIVYAMGWYRQAPGKERELVAAITRSGSSTYYADSVKGRFTISRDNAKNTVYLQMNSLKPEDTAVYYCAADVGFGGYSHFDPYEYWGQGTQVTVSS	high polyreactivity
QVQLVESGGGLVQAGGSLRLSCAAYGHFFAIYAMGWYSQAPGKEREFVAAITFTTRTYYADSVKGRFTISRDNAKNTVYLQMNSLKPEDTAVYYCAAGGYGEEYDYWGQGTQVTVSS	low polyreactivity
QVQLVDSGGGLVQAGGSLRLSCAASGLTFQYKAMGRYRHAPGKERELVATISQSGGSTYYADSVKGRFTISRDNAKNTVYLQMNSLKPEDTAVYYCAADGAWGTASYSVAFDYWGQGTQVTVSS	low polyreactivity
QVQLEESGGGLVQAGGSLRLSCAASGITFRAYAMGWYRQAPGKERELVAAITGRGGRTYYADSVKGRFTISRDNAKNTVYLQMNSLKPEDPAVYYCNAYLWRVNQTYDYWGQGTQVTVSS	high polyreactivity
QVQLVESGGGLVQAGGSLRLSCAASGRIFYTYAMGWYRPAPGKERELVAAITYRGGSTYYADSVKGRFTISRDNAKNTVYLQMNSLKPEDTAVYYCAGRPGRGPDSRWRYKYDYWGQGTQVTVSS	high polyreactivity
QVQLVESGGGLVQAGGSLRLSCAASGFIFYRYAMGWYRQAPGKERELVAAISTLGGSTFYADSVKGRFTISRDNAKNTVYLQMISLKPEDTAVYYCATGPLRAYDYWGQGTQVTVSS	high polyreactivity
QVQLVESGGGLVQAGGSHRLSCAASGIILYHYAMGWYRQAPGKERELVATITSGGSTNYADSVKGRFTISRDYAKNTVDLQMNSLKPEDTAVYYCAAVPSRYGRYRYYYWGQGTQVTVSS	high polyreactivity
QVQLVETGGGLVQAGGSLRLSCAASGNTFVLYAMGWYRQAPGKERELVAAIRRGVRTYADSVKGRFTISRDNAKNTFYLQMNSLIPDDTAVYYCAAYYVFLDNDYWGHGTQVTVSS	high polyreactivity
QVQLVESGGGLVQAGGSLRLSCAASGSIFGWYAMGWYRQAPGKVRELVATITDRGGRTYYADSVKGRFTISRDNAKNTVYLQMNSLTPEDTAVYDCAADAWPFEAESDSWGQGTQVTVSS	low polyreactivity
QVQLVESGGGLVQAGGSLRLSCAASGSTLYTYAMGWYRQAPGKERELVAAIRLSGGRTYYADSVKGRFTISRDNAQNTVYLQMNSLKPEDTAVYYCAVDWSYSRYDYWGQGTQVTVSS	high polyreactivity
QVQLVESGGGLVQAGGSLRLSCASSGRTFYYYAIGWYRQSPGKETELVAVIRSSGDSTYYADSVKGRFTISRDNAKNTVSLQMNSLKPEDNAVYYCAAEAPSRCYSWHPRYYFWGQGTQVTVSS	low polyreactivity
QVQLVESGGGLVQAGGSLRLSCAASGSILRLYVMGWYIQAPGKDRELVADISDRGGSTYYADSVKGRFTISRDNAKNTVYLQMNSLKPEDTAVYYCAAEWGQRGGGGYYYWGQGTQVTVSS	low polyreactivity
QVQLVESGGGLVQAGGSLRLSCAASGSTFGVNAMGWSRQAPGKERELVAVITRSGGSTYYADSVKGRFTISRDNAKNTVFLQMNSLIPEDTAVYYCAKSGVVDWGQGTQVTVSS	low polyreactivity
QVQLVESGGGLVQAGGSLRLSCAASGSTFVDNAMGWYRQAPGKERELVAAITSSGGSTYYADSVKGRFTISRDNAQNTVYLQMNSLKPEDTAVYYCAADEWIVHDGYYSSYYYWGQGTQVTVSS	low polyreactivity
QVQLVESGGGLVQAGGSLRISCAASGFTFAYYAMGRYRQAPGKERELVASITSGGSTYYADSVKGRFTISRDNAKNNVYLQMNSLKPEDTAVYYCAADSSIDYDWGQGTQVTVSS	high polyreactivity

Sequence	polyreactivity (PSR sort gate)
QVQLVDSGGGLVQAGGSLRLSCAASGSIFHVYAMGWYRQAPGKERELFAAIDRSGGSTYYADSVKGRFTISRDNAKNTVYLQMNSLKPEDTAVFYCAKDVLGGLITDGVGNDYWGQGTQLTVSS	low polyreactivity
QVQLVESGGGLVQAGGSLRLSCAASGSTFRRYAMGWYRQAPVKERELVAAITRGGITYYADSVKGRFTISRDNAKNTVYLQMNSLKPEDTAVYYCAATTFGPYALYPRYYYWGQGTQVTVSS	high polyreactivity
QVQLVESGGGLVQAGGSLRLSCASSGSTFAYYVMGRYIHAPGKEWELVAAISRGGRTYYADSVKGRFTISRDNAKNTVYFQLNSLKPEDTAVYYCAAEGASLAKYDYCGQGTQVTVSS	low polyreactivity
QVQLVESGGGLVQEGGSLRLSCAASGSTISSYAMGWYRQAPGKERELVAAITSGGSTYYADSVKGRFTFSRDNAKNTVYLQMNSLKPDDTAVYYCDLGSTTMDYWGQGTQVTVSS	low polyreactivity
QVQLEESGGGLVQAGGSLRLSCAASYAMGWYRQAPGKERELVATITRTDRTNYADSVKGRFTISRDNAKNTVYLQMNSLKPEDTAVYYCNKVDWSAPGDSPKYGYWGQGTQVTVSS	low polyreactivity
QVQLVESGGGLVQAGGSLRISCAASGITLYNYPMGWYRQAPGKERELVAAISLSGGRTYYAESVKGRFTISRDNAKNTVYLQMNSLQTEDTAVYYCAADWLNSDPYNYWGQGTQVTVSS	low polyreactivity
QVQLVESGGGLVQAGGSLRLSCAASGFTLYRNAMGWNRQAPGKERELVAAISSSGGRTYYADSVKGRFTISRDNAKNTVYLQMNSLKPEDTAVYYCAADFYRYGPQLGYWGQATQVTVSS	high polyreactivity
QVQLVESGGGLVQAGGSLRLSCAASGFTFIGYAMGWSRPAPGKERELVAAITWRGGRTYYADSVKGRFSISRDNAKNTVYLQMNSLKTEETAVYYCAADGYTVGNSYYWGHGTQVTVSS	high polyreactivity
QVQLVESGGGLVQAGVSLRLSCAASGSTFYRKTMGWYIQAPGKERELVAAISSSGGSTYYADSVNGRFTISRDNAKNTVYLQMNSLKPEDTAVYYCADTYSPFDFYYWRQGTQVTVSS	low polyreactivity
QVQLVESGGGLVQAGGSLRLSCAASGRTFVTYAMGWYRQAPGKEREFVAAISRNGGSTYYADSVKGRFTISRDNAKNTVYLQMNSLKPEDTAVYYCAKGRPWYRGDYWGQGTQVTVSS	low polyreactivity
QVQLVESGGGLVQAGGSLRLSCAASGSTFDPYAMGWYRQAPGKERELVAAITSGGGTKYADSVKGRFTISRDNAKNTVYLQMNSLKPEDTAVYYCATDIRAEHGYWGQGTQVTVSS	low polyreactivity
QVQLVESGGGLVQAGGSLRLSCAASGSTFARYAMGWYRPAPGKERELVAVIRSGGSTNYADSVKGRFTISRDNAKNTVYLQMNSLKPEDTAGAADQWTIHRWATYGYWGQGTQVTVSS	low polyreactivity
QVQLVESGGGLVQAGGSLRISCAASGITFWYYAMGWYRQAPGKERELVAAITRSGRTNYADSVKGRFTISRDNAKNTVYLQMNSLKPEDTAVYYCNAASLRYSYTLFDSWGLGTQVTVSS	high polyreactivity
QVQLVESGGGLVQAGGSLRLSCAASGLTFEYYTMGWYRQAPGIERELVAAITSSGGSTYYADSVKGRFTISRDNAKNTVYLQMISLKPEDTAVYYCNAYWTYEFPSYEYWGQGTQVTVSS	low polyreactivity
QVQLVESGGGLVQAGGSLRLSCAASGSTFDSYRMGWYRQAPGKERELVASISSRGGSTYYADSVKGRFTISRDNAKNTVSLQMNSLKPEATAVYYCAADWLSWFHGYGMYYWGQGTQVTVSS	low polyreactivity
QVQLVESGGGLVQAGGSHRLRCAASGRIFHVYAMGWYRQAPGKERELVAAISSGDRTYYADSVKGRFIISRDNAKNTVYLQMISLKPEDTAVYYCWRYPADESNYWGQGTQVTVSS	low polyreactivity
QVQLVESGGGLVQAGASLRLSCAASGRIFNGYAMGWYRQAPWKERELVATIRYRGDNTYYADSVKGRFTISRDNAKNTVYLQMNSLKPEDTAVYYCNARVWYTSTSSWAKRYNYWGQGTQVTVSS	high polyreactivity
QVQLVESGGGLVQAGGSLRLSCAASGSIFSLYAMGWYRQAPGKERELVAAISSSGTSTYYADSVKGRFTISRDNAKNTVYLQMNSLKPEDTAVYYCNAYREFDWGQGTQVTVSS	high polyreactivity
QVQLVESGGGLVQAGGSLRLSCAASGRTSLVYAMGWYRQAPGKERQLVAAISRGGTTNYADSVKGRFTISRDNAKNTVYLQMNSLKPEDTAVYYCAARTIYHVRPMYYWGQGTQVTVSS	high polyreactivity
QVQLVESGGGLVQAGGSLRLSCAASGRIFFTNAMGWYRQAPGKEREFVAGISFSGDGRTYYADSVKGRFTISRDNAKNTVYLQMNSLKPEDTAVYYCAAPHRSRTHELDYWGQGTQVTVSS	low polyreactivity
QVQLVESGGGLVQAGGSLRLSCAASGSIFGYYTMGWYRQAPGKERELVAAISRRGGSTYYADSVKGRFTISRDNAKKTVYLQMNSLKPEDTAVYYCAADVARSRHFEMDYWGQGTQVTVSS	high polyreactivity

Source: the nanobody polyreactivity screen of Harvey et al. (2022)
